In patent US6426205 (MOUNT SINAI HOSPITAL, dated 2002):
Positions count from the first letter of the chain named.

T1: MYC-tagged Cdc53 (Saccharomyces cerevisiae, UniProt Q12018 1-815)
T1 construct: Expressed from the wild type promoter on a CEN plasmid in yeast and immunoprecipitated with 9E10 anti-MYC; also called Cdc53^M; Cdc53^MYC6
T1 sequence: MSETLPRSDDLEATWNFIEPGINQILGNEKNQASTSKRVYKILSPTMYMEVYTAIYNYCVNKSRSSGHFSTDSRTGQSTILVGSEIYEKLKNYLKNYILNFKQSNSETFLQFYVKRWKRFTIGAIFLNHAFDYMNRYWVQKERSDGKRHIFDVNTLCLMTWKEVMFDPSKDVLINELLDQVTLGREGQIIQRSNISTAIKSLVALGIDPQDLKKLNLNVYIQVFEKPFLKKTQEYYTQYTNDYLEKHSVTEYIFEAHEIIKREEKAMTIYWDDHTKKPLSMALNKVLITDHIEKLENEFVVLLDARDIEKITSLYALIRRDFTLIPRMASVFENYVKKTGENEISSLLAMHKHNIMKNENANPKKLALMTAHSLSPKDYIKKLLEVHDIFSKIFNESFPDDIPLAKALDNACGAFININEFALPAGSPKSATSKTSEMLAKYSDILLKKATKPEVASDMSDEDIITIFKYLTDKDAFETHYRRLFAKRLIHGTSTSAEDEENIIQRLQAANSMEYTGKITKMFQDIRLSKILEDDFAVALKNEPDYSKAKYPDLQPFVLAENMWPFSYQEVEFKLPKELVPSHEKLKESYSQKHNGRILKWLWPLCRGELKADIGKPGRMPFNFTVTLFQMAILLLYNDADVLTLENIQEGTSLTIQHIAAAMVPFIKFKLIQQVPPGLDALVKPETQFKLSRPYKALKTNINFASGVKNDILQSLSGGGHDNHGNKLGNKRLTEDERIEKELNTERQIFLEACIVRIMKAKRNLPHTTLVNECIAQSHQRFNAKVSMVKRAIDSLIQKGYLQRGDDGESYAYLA

T2: Cdc53^Δ9-280 (MYC-tagged) (Saccharomyces cerevisiae, UniProt Q12018 1-815)
T2 construct: Deletion built with natural and engineered restriction sites; also called CDC53^MΔ9-280; pMT1850
T2 sequence: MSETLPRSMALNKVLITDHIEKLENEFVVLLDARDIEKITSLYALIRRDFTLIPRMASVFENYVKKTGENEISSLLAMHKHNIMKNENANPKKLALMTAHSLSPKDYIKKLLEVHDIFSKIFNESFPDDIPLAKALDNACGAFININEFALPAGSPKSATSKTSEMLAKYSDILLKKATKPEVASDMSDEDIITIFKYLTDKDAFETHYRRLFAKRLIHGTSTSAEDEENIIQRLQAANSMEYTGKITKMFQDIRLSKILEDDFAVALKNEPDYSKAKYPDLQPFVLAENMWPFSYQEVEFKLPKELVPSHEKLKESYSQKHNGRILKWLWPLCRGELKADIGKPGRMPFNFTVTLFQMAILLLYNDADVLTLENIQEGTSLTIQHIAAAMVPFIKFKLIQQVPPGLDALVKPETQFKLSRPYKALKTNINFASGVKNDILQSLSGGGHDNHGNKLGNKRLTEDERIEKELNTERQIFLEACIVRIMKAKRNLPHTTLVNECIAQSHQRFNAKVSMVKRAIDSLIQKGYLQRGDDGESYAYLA

T3: Cdc53 with deletion of residues 448-748 (MYC-tagged) (Saccharomyces cerevisiae, UniProt Q12018 1-815)
T3 construct: The limits of the text are used here; also called Cdc53 internal deletion
T3 sequence: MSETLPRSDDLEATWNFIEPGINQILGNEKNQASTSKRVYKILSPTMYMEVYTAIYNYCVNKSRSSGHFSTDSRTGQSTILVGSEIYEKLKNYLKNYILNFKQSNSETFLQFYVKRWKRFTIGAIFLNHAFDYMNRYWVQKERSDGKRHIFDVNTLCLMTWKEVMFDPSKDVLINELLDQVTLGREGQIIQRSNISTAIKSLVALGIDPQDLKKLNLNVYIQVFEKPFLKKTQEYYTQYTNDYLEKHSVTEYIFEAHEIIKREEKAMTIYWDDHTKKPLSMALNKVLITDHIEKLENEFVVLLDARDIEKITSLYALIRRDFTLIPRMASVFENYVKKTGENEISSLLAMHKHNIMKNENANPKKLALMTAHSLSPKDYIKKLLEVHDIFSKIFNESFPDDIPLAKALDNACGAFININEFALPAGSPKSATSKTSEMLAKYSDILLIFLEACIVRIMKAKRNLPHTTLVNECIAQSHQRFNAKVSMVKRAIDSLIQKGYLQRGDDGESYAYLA

T4: Cdc53-Y48W, M49E^MYC6 (Saccharomyces cerevisiae, UniProt Q12018 1-815)
T4 construct: also called mutant Cdc53; pMT1939-1943
T4 sequence: T1 sequence with Y48W, M49E

B1: Cdc34 (enzyme, budding yeast, UniProt P14682 1-295, looked up)
chain: MSSRKSTASSLLLRQYRELTDPKKAIPSFHIELEDDSNIFTWNIGVMVLNEDSIYHGGFFKAQMRFPEDFPFSPPQFRFTPAIYHPNVYRDGRLCISILHQSGDPMTDEPDAETWSPVQTVESVLISIVSLLEDPNINSPANVDAAVDYRKNPEQYKQRVKMEVERSKQDIPKGFIMPTSESAYISQSKLDEPESNKDMADNFWYDSDLDDDENGSVILQDDDYDDGNNHIPFEDDDVYNYNDNDDDDERIEFEDDDDDDDDSIDNDSVMDRKQPHKAEDESEDVEDVERVSKKI
notes: Endogenous protein in yeast lysates, detected with anti-Cdc34 antibodies; also called endogenous Cdc34
B2: Cdc53 with IVRIMK (residues 755-760) mutated to polyalanine (MYC-tagged) (other, not shown: small tags and cut ends)
chain: T1 sequence with I755A, V756A, R757A, I758A, M759A, K760A
notes: also called CDC53^MIVRIMK; pMT1859

Legend:
[1] = biological target: T1, MYC-tagged Cdc53; experiment: anti-MYC immunoprecipitation from yeast lysate, immunoblot
[2] = biological target: T2, Cdc53^Δ9-280 (MYC-tagged); experiment: as above
[3] = biological target: T3, Cdc53 with deletion of residues 448-748 …; experiment: as above
[4] = biological target: T4, Cdc53-Y48W, M49E^MYC6; experiment: anti-MYC immunoprecipitation from yeast lysate, western blot
Experimental: This powder was thawed, spun to remove cellular debris, and cleared by spinning in ultracentrifuge. Protein concentration in the lysate was adjusted to 24 mg/ml in a volume of 1.25 ml lysis buffer+10 mM N-ethyl maleimide, for a final mass of 30 mg protein for each strain. 25 µl of a 50% slurry in lysis buffer of protein-A beads (Pierce) cross-linked with dimethyl suberimidate to the anti-MYC monoclonal antibody 9E10 was added to each lysate, incubated with gentle rocking at 4° C. for several hours, washed several times with lysis buffer, aspirated, resuspended in protein sample buffer, and run on two 10% polyacrylamide gels. One gel was transferred to polyvinylidene fluoride membrane and western blotted with anti-MYC, anti-Cdc34, and anti-Skp1 antibodies (FIG. 12A).

[5] = biological target: T5, Skp1 (budding yeast); experiment: anti-MYC immunoprecipitation from yeast lysate, immunoblot
T5 construct: Endogenous protein in yeast lysates, detected with anti-Skp1 antibodies; also called endogenous Skp1
T5 sequence (chain, as listed by the source limits assumed): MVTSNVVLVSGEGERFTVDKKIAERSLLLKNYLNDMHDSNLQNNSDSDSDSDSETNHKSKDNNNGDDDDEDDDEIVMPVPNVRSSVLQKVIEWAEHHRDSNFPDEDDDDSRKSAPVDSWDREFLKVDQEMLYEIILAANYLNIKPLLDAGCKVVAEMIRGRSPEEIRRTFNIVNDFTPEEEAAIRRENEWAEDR

[6] = biological target: B1; experiment: as above

Binder | binding result [1] | binding result [2] | binding result [3] | binding result [4] | binding result [5] | binding result [6]
B1 | binds | binds | no binding | binds | – | –
B2 | – | – | – | – | binds | binds
